The target in this experiment is hCD40ADD (human CD40 with its TRAF binding site PVQETLH changed to PVQATDD) (human) (UniProt P25942). Briefly: co-IP.

Among the data in article PMC2747101 are fold reduction of co-immunoprecipitated TRAF2 against hCD40 values, retold here.

B1: TNF receptor-associated factor 2 (natural protein)
chain: MAAASVTSPGSLELLQPGFSKTLLGTRLEAKYLCSACKNILRRPFQAQCGHRYCSFCLTSILSSGPQNCAACVYEGLYEEGISILESSSAFPDNAARREVESLPAVCPNDGCTWKGTLKEYESCHEGLCPFLLTECPACKGLVRLSEKEHHTEQECPKRSLSCQHCRAPCSHVDLEVHYEVCPKFPLTCDGCGKKKIPRETFQDHVRACSKCRVLCRFHTVGCSEMVETENLQDHELQRLREHLALLLSSFLEAQASPGTLNQVGPELLQRCQILEQKIATFENIVCVLNREVERVAVTAEACSRQHRLDQDKIEALSNKVQQLERSIGLKDLAMADLEQKVSELEVSTYDGVFIWKISDFTRKRQEAVAGRTPAIFSPAFYTSRYGYKMCLRVYLNGDGTGRGTHLSLFFVVMKGPNDALLQWPFNQKVTLMLLDHNNREHVIDAFRPDVTSSSFQRPVSDMNIASGCPLFCPVSKMEAKNSYVRDDAIFIKAIVDLTGL
With B1, the fold reduction of co-immunoprecipitated TRAF2 against hCD40 amounted to 2 fold.
